Results on 4 molecules are retold here after patent publication EP4785962A1, “ANTIBODY-DRUG CONJUGATE TARGETING TROP2, AND PREPARATION METHOD AND USE THEREFOR” (priority 2023, dated 2025).

Where a chain is given by its changes, count along the chain named.

For data set [1], the system named is human pancreatic cancer cell line BxPC-3. The data set is described as follows: In vitro cytotoxicity test, BxPC3 cells, 6 days. The data set is classed as cell-based. As to conditions: BxPC3, 6 days of culture. Here is the method: (§1) 10% FBS (SH30406.05, HYCLONE) was added to RPMI 1640 (22400-071, Gibco), and the mixture was mixed well to prepare a BxPC3 cell (ATCC) growth medium. BxPC3 or FaDu cells were adjusted to a concentration of 50000 cells/mL with a growth medium, seeded into a 96-well white-bottom plate (167008, NUNC) at 50 µL per well (2500 cells/well), and incubated overnight in an incubator at 37 °C. The antibody was diluted with growth medium and serially diluted 5-fold from 200 nM (2×) to obtain 9 gradients, with the final concentration being […]. The diluted antibody-drug conjugate or control was added at 50 µL/well, and the total volume was 100 µL. […] The cell pellet was fully lysed by shaking on a plate shaker for 5 min, and the luminescence signal was stabilized by standing at room temperature for 10 min. The culture plate was tested on a microplate reader (spectra MAX i3x, Molecular Divices), the […] were taken, and the cell viability was calculated. […]
(§2) The cell proliferation inhibition rate after 6 days of culture was calculated using the following formula.
(§3) Cell proliferation inhibition rate (%) = […], where a: the average value of experimental sample-added wells after 6 days of culture; b: the average value of control medium-added wells after 6 days of culture. The data were fitted by GraphPad Prism and the IC50 of the drug was calculated (Table 4).

For data set [2] the following is noted: mouse, in vivo, 10 mg/kg; cited from earlier work.
Data set [3] relates to human hypopharyngeal carcinoma squamous cell line FaDu. The data set is described as follows: In vitro cytotoxicity test, FaDu cells, 6 days. As to conditions: 6 days of culture. Type of data set: cell-based. The protocol:
as §1, §2, §3

The test system of data set [4] is drug-resistant triple-negative breast cancer (TNBC). As to conditions: patients with drug-resistant triple-negative breast cancer (TNBC); cited from earlier work.
For data set [5] the following is noted: Days 1 and 8/every 21 days for 4 cycles; EMEA/H/C/005182/0000; cited from earlier work.
Data set [6] relates to Human gastric cancer cell line NCI-N87. The data set is described as follows: Mouse xenograft tumor model NCI-N87. Type of data set: in vivo, immunodeficient mice CB17-SCID. The settings on record: intraperitoneal injection. The protocol: • 1. Mice: immunodeficient mice CB17-SCID (Vital River) aged 6-8 weeks were placed in an SPF experimental environment for 3-5 days before the experiment to better adapt to the current living environment. In all experiments, the long and short diameters of the tumor were measured twice a week using a vernier caliper, and the tumor volume (mm^3) was calculated from the measured data. The calculation formula is as follows: Tumor volume(mm^3) = 0.5 × long diameter(mm) × short diameter(mm) × short diameter(mm) [formula] • 2. Human gastric cancer cell line NCI-N87 (ATCC) cells were resuspended in 1× PBS (Gibco, 10010049) at an appropriate concentration, and the tumor cells were implanted subcutaneously in the right abdomen of the mice at an inoculation amount of 2×10^6 /mouse. When the tumor volume reached 150-200 mm^3, the mice were divided into groups such that the average initial administration volume of each group was substantially the same. After grouping, different doses of antibody-drug conjugates hRs7-DXd, hRS7-MB3 and hTINA1-DXd, or control-drug conjugates IgG-MB3, IgG-DXd and IgG control were administered by intraperitoneal injection. […] Compared with hRS7-DXd, hRS7-MB3 has a stronger tumor inhibitory effect. […] Non-small cell lung cancer cell line HCC827 cells purchased from ATCC were inoculated subcutaneously into mice (2×10^6 /mouse), and when the tumor volume reached 120-150 mm^3, the mice were grouped and administered. Different doses of the antibody-drug conjugate and the control drug were intraperitoneally injected into the mice, and the administration was performed only once throughout the experiment. The growth status of the mice was observed, and the changes in tumor volume of the mice were measured. […] The lung squamous cell carcinoma cell line LK-2 (CBP60105) purchased from Nanjing Cobioer Biosciences was implanted subcutaneously in the right abdomen of the mice at an inoculation amount of 3 × 10 ^6 cells/mouse. When the tumor volume reached 150-200 mm^3, the mice were divided into groups such that the average initial administration volume of each group was substantially the same. The mice were administered only once throughout the experiment and injected intraperitoneally at a dose of 10 mg/kg. IgG-MB3 or IgG-DXd was used as a negative control. It was observed that two TROP2-targeted ADCs were also able to delay tumor growth in a tumor model with relatively low TROP2 expression (FIG. 7). […] The pancreatic cancer cell line BxPC3 cells purchased from ATCC were implanted subcutaneously in the right abdomen of the mice at an inoculation amount of 3 × 10 ^6 cells/mouse. […]

The target in data set [7] is Recombinant human TROP2 protein (Sino Biological) (human) (UniProt P09758). The experiment in a line: BLI (Octet Red96e), antibody on AHC sensor, antigen 100 nM. A general note: Biolayer interferometry detects binding as a change in optical thickness at a sensor tip.
Data set [8] concerns the target Rhesus Monkey Trop2 protein (Sino Biological 90893-C08H) (rhesus monkey). The data set is described as above.
The target in data set [9] is human TROP2 protein on the surface of FaDu cells (human) (UniProt P09758). The data set is described as follows: flow cytometry on FaDu cells, fluorescent secondary antibody. A general note: Flow cytometry measures light scatter and fluorescence of single cells or particles in a stream.
Data set [10] addresses T1, rat TROP2 (Sino Biological 86246-R08H) (rat, UniProt A0ABK0L8S5 21-268).
T1 construct: Bought recombinant protein
T1 sequence: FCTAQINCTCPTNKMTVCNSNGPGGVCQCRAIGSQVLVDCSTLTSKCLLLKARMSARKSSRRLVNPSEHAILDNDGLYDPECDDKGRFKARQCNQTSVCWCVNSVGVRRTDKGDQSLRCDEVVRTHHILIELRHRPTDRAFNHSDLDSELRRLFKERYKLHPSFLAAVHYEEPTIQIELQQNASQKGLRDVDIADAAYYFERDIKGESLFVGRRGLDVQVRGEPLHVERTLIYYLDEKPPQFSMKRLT
The data set is described as follows: BLI (Octet Red96e), antibody on AHC sensor, antigen in solution.

Data set [11] addresses T2, mouse TROP2 (Sino Biological 50922-M08H) (mouse, UniProt Q8BGV3 25-270).
T2 construct: Bought recombinant protein
T2 sequence (looked up): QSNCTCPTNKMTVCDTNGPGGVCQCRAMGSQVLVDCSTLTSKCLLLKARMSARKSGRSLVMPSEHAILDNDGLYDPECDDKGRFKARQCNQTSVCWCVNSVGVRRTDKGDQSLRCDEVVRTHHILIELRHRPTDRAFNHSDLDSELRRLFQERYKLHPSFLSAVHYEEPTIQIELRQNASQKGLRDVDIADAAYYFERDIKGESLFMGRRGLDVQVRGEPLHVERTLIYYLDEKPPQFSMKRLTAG
The description is as above.

The target of data set [12] is T3, human TROP2 protein on the surface of FaDu cells (human, UniProt P09758 27-323).
T3 construct: whole, on cells; also called TROP2 protein on cell surface; human TROP2 protein at the cellular level
T3 sequence (looked up): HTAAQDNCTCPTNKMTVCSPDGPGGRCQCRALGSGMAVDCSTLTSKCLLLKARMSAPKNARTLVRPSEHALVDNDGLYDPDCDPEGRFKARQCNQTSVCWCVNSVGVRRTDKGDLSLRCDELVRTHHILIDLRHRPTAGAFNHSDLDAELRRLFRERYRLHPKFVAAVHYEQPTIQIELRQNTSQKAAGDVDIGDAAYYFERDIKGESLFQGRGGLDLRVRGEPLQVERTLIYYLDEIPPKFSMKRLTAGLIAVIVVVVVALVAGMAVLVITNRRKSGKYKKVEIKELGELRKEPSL
The experiment in a line: flow cytometry on FaDu cells, fluorescent secondary antibody.

For data set [13], the target named is T4, Rhesus Monkey Trop2 protein (Sino Biological 90893-C08H) (rhesus monkey, UniProt A0A5F8AGB8 27-274).
T4 construct: Bought recombinant protein
T4 sequence: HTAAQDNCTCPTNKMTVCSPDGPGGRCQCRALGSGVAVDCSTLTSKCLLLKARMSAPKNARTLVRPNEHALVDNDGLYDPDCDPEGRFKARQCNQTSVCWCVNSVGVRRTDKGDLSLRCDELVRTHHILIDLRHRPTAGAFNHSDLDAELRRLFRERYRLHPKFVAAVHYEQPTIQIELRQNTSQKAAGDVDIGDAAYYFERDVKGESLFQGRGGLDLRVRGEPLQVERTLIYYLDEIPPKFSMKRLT
The experiment in a line: BLI (Octet Red96e), antibody on AHC sensor, antigen 100 nM.

Data set [14] concerns the target T5, Recombinant human TROP2 protein (Sino Biological) (human, UniProt P09758 27-274).
T5 construct: Bought recombinant protein; The two paragraphs give different catalogue numbers; also called TACSTD2
T5 sequence (looked up): T4 sequence with V36M, N67S, V204I
Described as above.

Usually IC50 stands for the midpoint of a concentration-inhibition curve. For the molecule Trodelvy [reference compound], the values for the IC50 in [1] and in [3] were 0.42 nM and 0.53 nM, respectively. In [2], the half-life in mice is 11 h. The “objective response rate (ORR)” value in data set [4] was 33%. Moreover, the HNSTD in data set [5] is given as 50 mg/kg.
On to “hRS7-DXd: antibody hRS7 conjugated with Linker-DXd, average DAR 4.4 [reference compound]”, for which the tumor inhibitory effect entry in [6] (high-dose group (3 mg/kg)) is “comparable tumor inhibitory effects”; in data set [6] (low dose (1 mg/kg), compared with IgG-MB3 and IgG-DXd), “a certain degree of tumor inhibitory effect”.
The term Kd denotes the equilibrium constant for the complex coming apart. By koff is commonly meant a measure of how fast the partners let go of each other. A word on the kon: it is a measure of how fast the partners come together. Broadly, the EC50 is the concentration giving half of the maximal effect. Regarding “hTINA1 (the antibody used in Ds-1062), positive control antibody”, in [7], the Kd was determined as 22.8 nM, the Response was found to be 0.284, the koff is 0.0035 s⁻¹ and the kon worked out at 154000 M⁻¹ s⁻¹. Moreover, in data set [8], the Kd came out at 32.5 nM, the Response worked out at 0.21, the koff was determined as 0.00356 s⁻¹ and the kon is 110000 M⁻¹ s⁻¹. Also, the half-maximal effective concentration (EC50) in data set [9] amounted to 1.7 nM.

B1: hRS7 antibody (hRS7-IgG1), humanized antibody targeting TROP2 in IgG1 form (antibody, V domains shown)
VH: QVQLQQSGSELKKPGASVKVSCKASGYTFTNYGMNWVKQAPGQGLKWMGWINTYTGEPTYTDDFKGRFAFSLDTSVSTAYLQISSLKADDTAVYFCARGGFGSSYWYFDVWGQGSLVTVSS
VL: DIQLTQSPSSLSASVGDRVSITCKASQDVSIAVAWYQQKPGKAPKLLIYSASYRYTGVPDRFSGSGSGTDFTLTISSLQPEDFAVYYCQQHYITPLTFGAGTKVEIKR
Turning to B1, in data set [10], the binding result is listed as “no binding (tested: 100 nM)”. Further, the binding result in data set [11] is “no binding (tested: 100 nM)”. In data set [12], this molecule had an EC50 of 1.58 nM. Moreover, in [13], the equilibrium dissociation constant (Kd) was 7.75 nM, the koff was found to be 0.000823 s⁻¹ and the kon worked out at 106000 M⁻¹ s⁻¹. In data set [14], the Kd is 4.52 nM, the koff is 0.00056 s⁻¹ and the kon came out at 124000 M⁻¹ s⁻¹.
